Laboratory results: article PMC2654154, “Molecular Basis of Filamin A-FilGAP Interaction and Its Impairment in Congenital Disorders Associated with Filamin A Mutations” (PLoS ONE, 2009)
Blank lines part the entries; values can stand above or below the molecule they belong to.

Tests used:
FilGAP (Homo sapiens) = FilGAP (Homo sapiens) (UniProt Q8N264); conditions: cited from earlier work
[1] = target: T1, FLAG-FLNa L2439M (disease-related) (human, UniProt P21333 1-2647, L2439M); experiment: pull-down; full-length FilGAP or His-FilGAP lacking 649–725 (50 nM in Figure 1C) mixed with increasing amounts of wild-type or mutant FLAG-FLNa, precipitated with FLAG-specific mAb on agarose; immunoblot for FilGAP or the His tag; conditions: both partners purified
T1 construct: filamin A (FLNa), human, full length, transcript of the patient mutation 7315C>A; source: Sf9 cells, purified
T1 sequence (P21333 whole entry L2439M): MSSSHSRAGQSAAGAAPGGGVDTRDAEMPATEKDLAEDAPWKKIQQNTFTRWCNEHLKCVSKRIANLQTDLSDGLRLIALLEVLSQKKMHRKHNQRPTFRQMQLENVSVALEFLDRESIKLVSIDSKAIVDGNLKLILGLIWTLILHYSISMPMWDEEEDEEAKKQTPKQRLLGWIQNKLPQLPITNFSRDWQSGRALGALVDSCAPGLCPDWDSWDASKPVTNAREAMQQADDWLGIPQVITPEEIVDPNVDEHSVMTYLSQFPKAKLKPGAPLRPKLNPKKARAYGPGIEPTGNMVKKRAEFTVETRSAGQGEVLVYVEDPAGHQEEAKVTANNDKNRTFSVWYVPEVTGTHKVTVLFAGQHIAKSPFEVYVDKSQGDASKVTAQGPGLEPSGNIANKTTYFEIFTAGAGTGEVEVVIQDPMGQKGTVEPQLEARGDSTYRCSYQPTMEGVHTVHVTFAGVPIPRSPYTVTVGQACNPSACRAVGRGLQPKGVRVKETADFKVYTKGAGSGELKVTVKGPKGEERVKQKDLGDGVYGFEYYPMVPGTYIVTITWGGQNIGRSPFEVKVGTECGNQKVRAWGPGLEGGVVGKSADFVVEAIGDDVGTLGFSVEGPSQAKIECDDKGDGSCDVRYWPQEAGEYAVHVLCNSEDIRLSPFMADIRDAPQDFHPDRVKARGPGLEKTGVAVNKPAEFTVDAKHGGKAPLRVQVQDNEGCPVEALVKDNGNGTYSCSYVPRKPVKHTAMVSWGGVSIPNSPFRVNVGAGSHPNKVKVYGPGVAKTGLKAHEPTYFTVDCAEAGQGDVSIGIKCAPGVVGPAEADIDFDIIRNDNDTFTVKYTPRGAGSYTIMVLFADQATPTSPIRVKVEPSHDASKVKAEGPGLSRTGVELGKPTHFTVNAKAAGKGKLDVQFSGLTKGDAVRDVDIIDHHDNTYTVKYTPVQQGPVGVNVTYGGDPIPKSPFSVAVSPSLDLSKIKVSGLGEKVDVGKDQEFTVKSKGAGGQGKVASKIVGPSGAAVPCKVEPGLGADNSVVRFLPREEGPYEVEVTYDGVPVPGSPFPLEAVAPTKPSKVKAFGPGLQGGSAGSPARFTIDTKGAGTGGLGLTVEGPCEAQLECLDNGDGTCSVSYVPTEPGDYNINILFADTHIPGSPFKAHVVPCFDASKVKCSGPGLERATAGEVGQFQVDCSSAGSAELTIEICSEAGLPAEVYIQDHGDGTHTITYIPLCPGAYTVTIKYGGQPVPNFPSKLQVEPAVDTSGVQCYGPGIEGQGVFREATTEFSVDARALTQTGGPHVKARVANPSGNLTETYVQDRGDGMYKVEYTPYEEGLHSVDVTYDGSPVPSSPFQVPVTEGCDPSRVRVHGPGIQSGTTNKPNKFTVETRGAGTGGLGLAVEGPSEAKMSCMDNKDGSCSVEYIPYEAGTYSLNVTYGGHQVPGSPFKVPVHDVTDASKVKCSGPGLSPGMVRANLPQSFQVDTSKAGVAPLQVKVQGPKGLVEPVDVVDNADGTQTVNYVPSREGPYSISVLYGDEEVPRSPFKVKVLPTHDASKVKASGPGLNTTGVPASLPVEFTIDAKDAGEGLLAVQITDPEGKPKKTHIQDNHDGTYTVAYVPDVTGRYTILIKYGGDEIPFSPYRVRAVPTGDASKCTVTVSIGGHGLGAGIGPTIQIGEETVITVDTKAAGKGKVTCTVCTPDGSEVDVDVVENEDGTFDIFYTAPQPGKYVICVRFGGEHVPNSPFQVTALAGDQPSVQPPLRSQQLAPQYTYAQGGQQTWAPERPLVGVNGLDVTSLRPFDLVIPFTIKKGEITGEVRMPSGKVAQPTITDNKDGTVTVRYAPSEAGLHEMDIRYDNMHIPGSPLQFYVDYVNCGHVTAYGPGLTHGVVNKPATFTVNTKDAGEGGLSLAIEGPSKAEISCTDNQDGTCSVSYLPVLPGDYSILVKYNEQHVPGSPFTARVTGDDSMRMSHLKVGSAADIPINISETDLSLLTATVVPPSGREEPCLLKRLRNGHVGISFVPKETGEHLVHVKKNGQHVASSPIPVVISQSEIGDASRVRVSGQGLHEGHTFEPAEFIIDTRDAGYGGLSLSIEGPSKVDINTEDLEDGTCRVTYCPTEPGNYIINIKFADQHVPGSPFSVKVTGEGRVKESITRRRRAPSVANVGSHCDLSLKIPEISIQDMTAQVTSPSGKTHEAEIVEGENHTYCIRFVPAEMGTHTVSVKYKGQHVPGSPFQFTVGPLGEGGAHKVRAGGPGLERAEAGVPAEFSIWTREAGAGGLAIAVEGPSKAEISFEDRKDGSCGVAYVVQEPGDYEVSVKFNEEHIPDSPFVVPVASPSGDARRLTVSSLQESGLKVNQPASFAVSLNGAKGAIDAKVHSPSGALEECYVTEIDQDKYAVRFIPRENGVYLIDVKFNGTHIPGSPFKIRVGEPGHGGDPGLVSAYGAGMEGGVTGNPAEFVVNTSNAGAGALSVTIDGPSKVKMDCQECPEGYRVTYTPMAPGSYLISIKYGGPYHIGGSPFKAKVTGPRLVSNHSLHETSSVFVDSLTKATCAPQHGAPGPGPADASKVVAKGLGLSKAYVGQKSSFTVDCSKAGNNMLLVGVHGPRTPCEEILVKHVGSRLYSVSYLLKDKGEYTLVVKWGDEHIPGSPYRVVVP

[2] = target: the molecule itself; experiment: SEC; Superose 6 10/300 GL, 20 mM Tris-HCl pH 7.4, 150 mM NaCl, 0.5 mM EGTA, 4°C; size from calibration with standards
[3] = target: T2, FLAG-tagged full-length FLNa (filamin A), wild type (human, UniProt P21333 1-2647); experiment: pull-down; GST-His- or MBP-His-FilGAP constructs (various concentrations) with 25 nM FLAG-FLNa on FLAG-specific mAb M2 agarose; 50 mM Tris-HCl, 150 mM NaCl, 0.1% Triton X-100, 0.1 mM EGTA, pH 7.4, 1 h, 25°C; immunoblot for GST or MBP; conditions: both partners purified
T2 construct: filamin A (FLNa), human, full length; also called FLAG-FLNa; WT FLAG-FLNa; source: Sf9 insect cells (baculovirus), purified
T2 sequence (P21333 whole entry): as the sequence (P21333 whole entry L2439M) above, with M2439L counted along it

Molecule: filamin A (from UniProt P21333)
Kd (FilGAP (Homo sapiens)): 200 nM

B2: His-tag full-length FilGAP (natural protein, human, UniProt Q8N264 1-748, looked up)
chain: MEENNDSTENPQQGQGRQNAIKCGWLRKQGGFVKTWHTRWFVLKGDQLYYFKDEDETKPLGTIFLPGNKVSEHPCNEENPGKFLFEVVPGGDRDRMTANHESYLLMASTQNDMEDWVKSIRRVIWGPFGGGIFGQKLEDTVRYEKRYGNRLAPMLVEQCVDFIRQRGLKEEGLFRLPGQANLVKELQDAFDCGEKPSFDSNTDVHTVASLLKLYLRELPEPVIPYAKYEDFLSCAKLLSKEEEAGVKELAKQVKSLPVVNYNLLKYICRFLDEVQSYSGVNKMSVQNLATVFGPNILRPKVEDPLTIMEGTVVVQQLMSVMISKHDCLFPKDAELQSKPQDGVSNNNEIQKKATMGQLQNKENNNTKDSPSRQCSWDKSESPQRSSMNNGSPTALSGSKTNSPKNSVHKLDVSRSPPLMVKKNPAFNKGSGIVTNGSFSSSNAEGLEKTQTTPNGSLQARRSSSLKVSGTKMGTHSVQNGTVRMGILNSDTLGNPTNVRNMSWLPNGYVTLRDNKQKEQAGELGQHNRLSTYDNVHQQFSMMNLDDKQSIDSATWSTSSCEISLPENSNSCRSSTTTCPEQDFFGGNFEDPVLDGPPQDDLSHPRDYESKSDHRSVGGRSSRATSSSDNSETFVGNSSSNHSALHSLVSSLKQEMTKQKIEYESRIKSLEQRNLTLETEMMSLHDELDQERKKFTMIEIKMRNAERAKEDAEKRNDMLQKEMEQFFSTFGELTVEPRRTERGNTIWIQ
notes: FilGAP, human, full length; also called His-FilGAP; His-tag FilGAP; source: Sf9 cells, purified (Ni-NTA)
stoichiometry N [2]: 2

Second part, the molecule after the results:

binding result [1]: binds
B1: full-length FilGAP, purified from Sf9 insect cells (natural protein, human, UniProt Q8N264 1-748, looked up)
chain: MEENNDSTENPQQGQGRQNAIKCGWLRKQGGFVKTWHTRWFVLKGDQLYYFKDEDETKPLGTIFLPGNKVSEHPCNEENPGKFLFEVVPGGDRDRMTANHESYLLMASTQNDMEDWVKSIRRVIWGPFGGGIFGQKLEDTVRYEKRYGNRLAPMLVEQCVDFIRQRGLKEEGLFRLPGQANLVKELQDAFDCGEKPSFDSNTDVHTVASLLKLYLRELPEPVIPYAKYEDFLSCAKLLSKEEEAGVKELAKQVKSLPVVNYNLLKYICRFLDEVQSYSGVNKMSVQNLATVFGPNILRPKVEDPLTIMEGTVVVQQLMSVMISKHDCLFPKDAELQSKPQDGVSNNNEIQKKATMGQLQNKENNNTKDSPSRQCSWDKSESPQRSSMNNGSPTALSGSKTNSPKNSVHKLDVSRSPPLMVKKNPAFNKGSGIVTNGSFSSSNAEGLEKTQTTPNGSLQARRSSSLKVSGTKMGTHSVQNGTVRMGILNSDTLGNPTNVRNMSWLPNGYVTLRDNKQKEQAGELGQHNRLSTYDNVHQQFSMMNLDDKQSIDSATWSTSSCEISLPENSNSCRSSTTTCPEQDFFGGNFEDPVLDGPPQDDLSHPRDYESKSDHRSVGGRSSRATSSSDNSETFVGNSSSNHSALHSLVSSLKQEMTKQKIEYESRIKSLEQRNLTLETEMMSLHDELDQERKKFTMIEIKMRNAERAKEDAEKRNDMLQKEMEQFFSTFGELTVEPRRTERGNTIWIQ
notes: FilGAP, human, full length; Tag-free FilGAP was prepared from His-FilGAP with TEV protease; also called Purified FilGAP; source: Sf9 cells, purified (Ni-NTA)

binding result [3]: binds
B3: GST-His-FilGAP 649–748 (C-terminal 100 residues) (domain or fragment, human, UniProt Q8N264 649-748, looked up)
chain: SSLKQEMTKQKIEYESRIKSLEQRNLTLETEMMSLHDELDQERKKFTMIEIKMRNAERAKEDAEKRNDMLQKEMEQFFSTFGELTVEPRRTERGNTIWIQ
notes: FilGAP, human, C-terminal 100 residues; also called GST-FilGAP fragment; source: E. coli (pGEX-4T-3-HT), purified
